Data on three molecules can be found in paper PMC9871336, “Positive charge in the K-loop of the kinesin-3 motor KIF1A regulates superprocessivity by enhancing microtubule affinity in the one-head–bound state” (The Journal of Biological Chemistry, 2022).

The subject of one data set is T1, 1A-K1L12.
T1 construct: gene Kif1a; fused to D. melanogaster KHC neck-coil for dimerization; C-terminal His6; E. coli
Description: stopped-flow ATP-triggered half-site release of mant-ADP. Particulars: taxol-stabilized microtubules; 1HB complex with mant-ADP; Mg-ATP varied; half-maximal ATP for mant-ADP release, not steady-state ATPase. It is filed as biochemical, Rattus norvegicus.

Substrate in data set [1]: Nc1ncnc2c1ncn2[C@@H]1O[C@H](COP(=O)(O)OP(=O)(O)OP(=O)(O)O)[C@@H](O)[C@H]1O
The description is as above. Conditions: taxol-stabilized microtubules; 1HB complex with mant-ADP; Mg-ATP varied; half-maximal ATP for mant-ADP release, not steady-state ATPase. It is filed as biochemical, Rattus norvegicus.

As for `Nc1ncnc2c1ncn2[C@@H]1O[C@H](COP(=O)(O)OP(=O)(O)OP(=O)(O)O)[C@@H](O)[C@H]1O` [ATP], the Michaelis constant (Km) (usually the concentration of substrate that gives half-maximal velocity) in the data set with 1A-K1L12 stood at 64 ± 28 µM.

B1: 1A393 (Rattus norvegicus) (protein)
chain: MAGASVKVAVRVRPFNSREMSRDSKCIIQMSGSTTTIVNPKQPKETPKSFSFDYSYWSHTSPEDINYASQKQVYRDIGEEMLQHAFEGYNVCIFAYGQTGAGKSYTMMGKQEKDQQGIIPQLCEDLFSRINDTTNDNMSYSVEVSYMEIYCERVRDLLNPKNKGNLRVREHPLLGPYVEDLSKLAVTSYNDIQDLMDSGNKARTVAATNMNETSSRSHAVFNIIFTQKRHDAETNITTEKVSKISLVDLAGSERADSTGAKGTRLKEGANINKSLTTLGKVISALAEMDSGPNKNKKKKKTDFIPYRDSVLTWLLRENLGGNSRTAMVAALSPADINYDETLSTLRYADRAKQIRCNAIINEDPNNKLIRELKDEVTRLRDLLYAQGLGDITD
notes: KIF1A 1-393 (motor, neck linker, neck-coil) fused to D. melanogaster KHC neck-coil 345-406 for dimerization (biochemical version; 345-560 plus GFP for single-molecule); C-terminal His6; E. coli; dimer
Regarding B1, the Km in data set [1] worked out at 96 ± 53 µM.

B2: 1A368 (Rattus norvegicus) (protein)
chain: MAGASVKVAVRVRPFNSREMSRDSKCIIQMSGSTTTIVNPKQPKETPKSFSFDYSYWSHTSPEDINYASQKQVYRDIGEEMLQHAFEGYNVCIFAYGQTGAGKSYTMMGKQEKDQQGIIPQLCEDLFSRINDTTNDNMSYSVEVSYMEIYCERVRDLLNPKNKGNLRVREHPLLGPYVEDLSKLAVTSYNDIQDLMDSGNKARTVAATNMNETSSRSHAVFNIIFTQKRHDAETNITTEKVSKISLVDLAGSERADSTGAKGTRLKEGANINKSLTTLGKVISALAEMDSGPNKNKKKKKTDFIPYRDSVLTWLLRENLGGNSRTAMVAALSPADINYDETLSTLRYADRAKQIRCNAIINEDPNNKL
notes: KIF1A 1-368 (motor, neck linker) fused to D. melanogaster KHC neck-coil 345-406 for dimerization (biochemical version; 345-560 plus GFP for single-molecule); C-terminal His6; E. coli; dimer
As for B2, the Michaelis constant (Km) in data set [1] turned out to be 119 ± 20 µM.
